The results in this text go back to patent US20200093883A1 (published 2020).

Square brackets hold non-standard residues; d marks the D form. Ends that are not written are not given here.

Usually IC50 stands for the midpoint of a concentration-inhibition curve. A lower IC50 goes with inhibition by little substance.

Targets include hJNK3; hJNK1; hJNK2.
Holding throughout (assay): AlphaScreen
A general note: Alpha assays give light when donor and acceptor beads are brought close together.

B1: SEQ ID NO: 172 (peptide)
peptide: [dR]KKR[dR]QRR[dR]RP[dK]RP[dA]TLNL[dF]-NH2
modifications: N-terminus assumed
SMILES: CC(C)C[C@H](NC(=O)[C@H](CC(N)=O)NC(=O)[C@H](CC(C)C)NC(=O)[C@@H](NC(=O)[C@@H](C)NC(=O)[C@@H]1CCCN1C(=O)[C@H](CCCNC(=N)N)NC(=O)[C@@H](CCCCN)NC(=O)[C@@H]1CCCN1C(=O)[C@H](CCCNC(=N)N)NC(=O)[C@@H](CCCNC(=N)N)NC(=O)[C@H](CCCNC(=N)N)NC(=O)[C@H](CCCNC(=N)N)NC(=O)[C@H](CCC(N)=O)NC(=O)[C@@H](CCCNC(=N)N)NC(=O)[C@H](CCCNC(=N)N)NC(=O)[C@H](CCCCN)NC(=O)[C@H](CCCCN)NC(=O)[C@H](N)CCCNC(=N)N)[C@@H](C)O)C(=O)N[C@H](Cc1ccccc1)C(N)=O
Regarding B1, the IC50 with hJNK3 was determined as 0.102 µM; with hJNK1, 0.722 µM; with hJNK2 it was 0.0547 µM.

B2: SEQ ID NO: 197 (peptide)
peptide: [dD][dQ][dS][dR][dP][dV][dQ][dP][dF][dL][dN][dL][dT][dT][dP][dR][dK][dP][dR][dP][dP][dR][dR][dR][dQ][dR][dR][dK][dK][dR]G
B2: the IC50 in the experiment with hJNK3 is 1.29 µM; in the experiment with hJNK1 it was 24.4 µM; with hJNK2, 0.802 µM.
